# Measured values published in patent US20110104145A1 (published 2011).
# Where no end group is shown, it is not given here.
# How the values were obtained:
# [1] = biological target: CD89 (Fc receptor for IgA) on polymorphonuclear cells (human, UniProt P24071 22-287); assay: cell-based or functional assay
# [2] = biological target: IgA (monomeric serum IgA, coated on beads or plates) (human, UniProt P01876-1 1-353); assay: cell-based or functional assay
# Chain of IgA (monomeric serum IgA, coated on beads or plates) (P01876 other isoform, or with tags, fused parts or gaps): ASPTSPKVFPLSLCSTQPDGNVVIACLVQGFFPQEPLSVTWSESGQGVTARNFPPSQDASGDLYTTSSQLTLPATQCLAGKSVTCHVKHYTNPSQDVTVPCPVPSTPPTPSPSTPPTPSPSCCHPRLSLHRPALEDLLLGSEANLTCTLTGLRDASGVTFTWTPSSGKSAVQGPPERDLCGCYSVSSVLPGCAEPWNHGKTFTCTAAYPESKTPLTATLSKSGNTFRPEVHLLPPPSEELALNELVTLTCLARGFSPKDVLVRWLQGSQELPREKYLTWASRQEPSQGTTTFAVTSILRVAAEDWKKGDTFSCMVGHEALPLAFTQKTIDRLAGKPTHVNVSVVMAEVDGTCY
# Chain of CD89 (Fc receptor for IgA) on polymorphonuclear cells (P24071 22-287): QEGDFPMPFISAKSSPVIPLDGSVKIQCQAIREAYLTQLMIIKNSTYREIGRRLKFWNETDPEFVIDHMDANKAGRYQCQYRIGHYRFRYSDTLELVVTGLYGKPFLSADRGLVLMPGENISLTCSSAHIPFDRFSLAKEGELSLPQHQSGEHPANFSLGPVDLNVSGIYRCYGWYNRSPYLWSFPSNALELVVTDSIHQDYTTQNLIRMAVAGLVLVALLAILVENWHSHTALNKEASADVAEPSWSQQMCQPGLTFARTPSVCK
"percentage blocking (polymorphonuclear cells bound to IgA-coated beads, 2-D migration assay) [1] [%]","percentage blocking (polymorphonuclear cells bound to IgA-coated beads, 2-D migration assay) [2] [%]",Binder
≤ 18,–,HEALPLAFTQK-NH2 [peptide IgA CH3]
≤ 20,–,"CSMVGHEALPLAFTQKC-NH2 (cysteine pairing not given here) [peptide PEO-47 mP2#2,3]"
–,≤ 19,REIGRRLKFWNETDP [Peptide Fc alpha 113]
